Measured values as given in EP4534554A1 (Corregene Biotechnology Co., Ltd., dated 2025).

Legend:
[1] = molecular target: T1, MAGE-A1 peptide on HLA-A*02:01 (human); test: JKR9 reporter + peptide-loaded T2, 16 h; full-length, on cells
T1 peptide: KVLEYVIKV

[2] = molecular target: MAGE-A1 target antigen peptide … presented by HLA-A*02:01 on cells (human); test: cell-based or functional assay; parameters: EC50 Enhancement Factor: unit not given beside the values

| EC50 of peptide [1] | EC50 Enhancement Factor [2] | EC50 Value (M), JKR9 reporter activation by peptide-loaded T2 cells [2] | Binder |
| --- | --- | --- | --- |
| 355 nM | 47 | 3.55e-07 M | ht27M1166 (TCR, V domains shown) Valpha: GEDVEQSLFLSVREGDSSVINCTYTDSSSTYLYWYKQEPGAGLQLLTYIFSNMDMKQDQRLTVLLNKKDKHLSLRIADTQTGDSAIYFCAGSGGGTDKLIFGTGTRLQVFP Vbeta: GAVVSQHPSWVICKSGTSVKIECRSLDFQATTMFWYRQFPKQSLMLMATSNEGSKATYEQGVEKDKFLINHASLTLSTLTVTSAHPEDSSFYICQAREPGQGPYEQYFGPGTRLTVT |
| 26.1 nM | 637 | 2.61e-08 M | ht27M1012 (TCR, V domains shown) Valpha: GEDVEQSLFLSVREGDSSVINCTYTDSSSTYLYWYKQEPGAGLQLLTYIFSNMDMKQDQRLTVLLNKKDKHLSLRIADTQTGDSAIYFCAGSGGGTDKLIFGTGTRLQVFP Vbeta: GAVVSQHPSWVICKSGTSVKIECRSLDFQATTMFWYRQFPKQSLMLMATSNEGSKATYEQGVEKDKFLINHASLTLSTLTVTSAHPEDSSFYICSAREPGGGPFEQYFGPGTRLTVT |
| 39.5 nM | 422 | 3.95e-08 M | ht27M1128 (TCR, V domains shown) Valpha: GEDVEQSLFLSVREGDSSVINCTYTDSSSTYLYWYKQEPGAGLQLLTYIFSNMDMKQDQRLTVLLNKKDKHLSLRIADTQTGDSAIYFCAGSGGGTDKLIFGTGTRLQVFP Vbeta: GAVVSQHPSWVICKSGTSVKIECRSLDFQATTMFWYRQFPKQSLMLMATSNEGSKATYEQGVEKDKFLINHASLTLSTLTVTSAHPEDSSFYICLAREPGQGPYEQYFGPGTRLTVT |
| 19.8 nM | 841 | 1.98e-08 M | ht27M1013 (TCR, V domains shown) Valpha: GEDVEQSLFLSVREGDSSVINCTYTDSSSTYLYWYKQEPGAGLQLLTYIFSNMDMKQDQRLTVLLNKKDKHLSLRIADTQTGDSAIYFCAGSGGGTDKLIFGTGTRLQVFP Vbeta: GAVVSQHPSWVICKSGTSVKIECRSLDFQATTMFWYRQFPKQSLMLMATSNEGSKATYEQGVEKDKFLINHASLTLSTLTVTSAHPEDSSFYICSAREPGSGPFEQYFGPGTRLTVT |
| 22.1 nM | 751 | 2.21e-08 M | ht27M1019 (TCR, V domains shown) Valpha: GEDVEQSLFLSVREGDSSVINCTYTDSSSTYLYWYKQEPGAGLQLLTYIFSNMDMKQDQRLTVLLNKKDKHLSLRIADTQTGDSAIYFCAGSGGGTDKLIFGTGTRLQVFP Vbeta: GAVVSQHPSWVICKSGTSVKIECRSLDFQATTMFWYRQFPKQSLMLMATSDYQTCVTYEQGVEKDKFLINHASLTLSTLTVTSAHPEDSSFYICSAREPGSGPFEQYFGPGTRLTVT |
| 63.6 nM | 262 | 6.36e-08 M | ht27M1018 (TCR, V domains shown) Valpha: GEDVEQSLFLSVREGDSSVINCTYTDSSSTYLYWYKQEPGAGLQLLTYIFSNMDMKQDQRLTVLLNKKDKHLSLRIADTQTGDSAIYFCAGSGGGTDKLIFGTGTRLQVFP Vbeta: GAVVSQHPSWVICKSGTSVKIECRSLDFQATTMFWYRQFPKQSLMLMATSDYQTCVTYEQGVEKDKFLINHASLTLSTLTVTSAHPEDSSFYICSAREPGGGPFEQYFGPGTRLTVT |
| 8.24 nM | 2020 | 8.24e-09 M | ht27M1011 (TCR, V domains shown) Valpha: GEDVEQSLFLSVREGDSSVINCTYTDSSSTYLYWYKQEPGAGLQLLTYIFSNMDMKQDQRLTVLLNKKDKHLSLRIADTQTGDSAIYFCAGSGGGTDKLIFGTGTRLQVFP Vbeta: GAVVSQHPSWVICKSGTSVKIECRSLDFQATTMFWYRQFPKQSLMLMATSDYQTCVTYEQGVEKDKFLINHASLTLSTLTVTSAHPEDSSFYICSAREPGQGPWEQYFGPGTRLTVT |

Further lines, the binder ahead of its results:

| Binder | EC50 of peptide [1] | EC50 Enhancement Factor [2] | EC50 Value (M), JKR9 reporter activation by peptide-loaded T2 cells [2] |
| --- | --- | --- | --- |
| ht27M1004 (TCR, V domains shown) Valpha: GEDVEQSLFLSVREGDSSVINCTYTDSSSTYLYWYKQEPGAGLQLLTYIFSNMDMKQDQRLTVLLNKKDKHLSLRIADTQTGDSAIYFCAGSGGGTDKLIFGTGTRLQVFP Vbeta: GAVVSQHPSWVICKSGTSVKIECRSLDFQATTMFWYRQFPKQSLMLMATSNEGSKATYEQGVEKDKFLINHASLTLSTLTVTSAHPEDSSFYICSAREPGQGPFEQYFGPGTRLTVT | 17.6 nM | 944 | 1.76e-08 M |
| ht27M1001 (TCR, V domains shown) Valpha: GEDVEQSLFLSVREGDSSVINCTYTDSSSTYLYWYKQEPGAGLQLLTYIFSNMDMKQDQRLTVLLNKKDKHLSLRIADTQTGDSAIYFCAGSGGGTDKLIFGTGTRLQVFP Vbeta: GAVVSQHPSWVICKSGTSVKIECRSLDFQATTMFWYRQFPKQSLMLMATSDYQTCVTYEQGVEKDKFLINHASLTLSTLTVTSAHPEDSSFYICSAREPGQGPYEQYFGPGTRLTVT | 42.8 nM | 388 | 4.28e-08 M |
| ht27M1009 (TCR, V domains shown) Valpha: GEDVEQSLFLSVREGDSSVINCTYTDSSSTYLYWYKQEPGAGLQLLTYIFSNMDMKQDQRLTVLLNKKDKHLSLRIADTQTGDSAIYFCAGSGGGTDKLIFGTGTRLQVFP Vbeta: GAVVSQHPSWVICKSGTSVKIECRSLDFQATTMFWYRQFPKQSLMLMATSDYQTCVTYEQGVEKDKFLINHASLTLSTLTVTSAHPEDSSFYICSAREPGQGPFEQYFGPGTRLTVT | 6.12 nM | 2720 | 6.12e-09 M |
| ht27M1010 (TCR, V domains shown) Valpha: GEDVEQSLFLSVREGDSSVINCTYTDSSSTYLYWYKQEPGAGLQLLTYIFSNMDMKQDQRLTVLLNKKDKHLSLRIADTQTGDSAIYFCAGSGGGTDKLIFGTGTRLQVFP Vbeta: GAVVSQHPSWVICKSGTSVKIECRSLDFQATTMFWYRQFPKQSLMLMATSDYQTCVTYEQGVEKDKFLINHASLTLSTLTVTSAHPEDSSFYICSAREPGQGPLEQYFGPGTRLTVT | 20.3 nM | 820 | 2.03e-08 M |
| ht27M1005 (TCR, V domains shown) Valpha: GEDVEQSLFLSVREGDSSVINCTYTDSSSTYLYWYKQEPGAGLQLLTYIFSNMDMKQDQRLTVLLNKKDKHLSLRIADTQTGDSAIYFCAGSGGGTDKLIFGTGTRLQVFP Vbeta: GAVVSQHPSWVICKSGTSVKIECRSLDFQATTMFWYRQFPKQSLMLMATSNEGSKATYEQGVEKDKFLINHASLTLSTLTVTSAHPEDSSFYICSAREPGQGPLEQYFGPGTRLTVT | 1550 nM | 11 | 1.55e-06 M |
| ht27M1006 (TCR, V domains shown) Valpha: GEDVEQSLFLSVREGDSSVINCTYTDSSSTYLYWYKQEPGAGLQLLTYIFSNMDMKQDQRLTVLLNKKDKHLSLRIADTQTGDSAIYFCAGSGGGTDKLIFGTGTRLQVFP Vbeta: GAVVSQHPSWVICKSGTSVKIECRSLDFQATTMFWYRQFPKQSLMLMATSNEGSKATYEQGVEKDKFLINHASLTLSTLTVTSAHPEDSSFYICSAREPGQGPWEQYFGPGTRLTVT | 37.4 nM | 445 | 3.74e-08 M |
